Data reported in patent US20170313769A1 (Pfizer, published 2017).
Residue numbers refer to the chain shown, from its start.

Key:
Assay in all cases: cell-based or functional assay
CID1287 = target: T1, CID1287 (human (IFNβ with IFNα sequence inserted), UniProt P01574 22-187)
T1 chain: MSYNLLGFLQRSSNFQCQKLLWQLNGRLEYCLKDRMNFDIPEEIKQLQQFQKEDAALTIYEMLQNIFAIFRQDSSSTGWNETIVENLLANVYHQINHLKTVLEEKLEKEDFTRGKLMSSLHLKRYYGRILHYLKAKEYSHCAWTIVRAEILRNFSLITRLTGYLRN

CID1286 = target: T2, CID1286 (human (IFNβ with IFNα sequence inserted), UniProt P01574 22-187)
T2 chain: T1 chain with H140P, A148V, S155Y, L156F, T158N

CID1283 = target: T3, CID1283 (human (IFNβ with IFNα sequence inserted), UniProt P01574 22-187)
T3 chain: T1 chain with S119I, K123R, R124K, A148V, S155Y, L156F, T158N

CID1280 = target: T4, CID1280 (human (IFNβ with IFNα sequence inserted), UniProt P01574 22-187)
T4 chain: T1 chain with E85D, N86K, A89T, A148V, S155Y, L156F, T158N

[1] = target: Human IFNβ (mature human interferon beta) (human, UniProt P01574 22-187)

B1: CTI-AF1 (antibody, human IgG1, kappa, V domains shown)
VH: QVQLVQSGAEVKKPGSSVKVSCKASGYTFSRYWMHWVRQAPGQGLEWMGHIDPSDSYTYYNQKFKGRVTITADESTSTAYMELSSLRSEDTAVYYCARWDYGNLLFEYWGQGTLVTVSS
VL: DIQMTQSPSSLSASVGDRVTITCRTSQDIGNYLNWYQQKPGKAFKLLIYSTSRLHSGVPSRFSGSGSGTDFTLTISSLQPEDFATYYCQQGIILPITFGGGTKVEIKR
notes: Humanized IgG1; The C-terminal K of the heavy chain is printed as optional, '(K)'; also called anti-IFNβ antibody; humanized IgG1 antibody against interferon beta
- IC50 (nM), neutralization of type I IFN-induced STAT1 phosphorylation (CID1287): 0.3 nM
- IC50 (nM), neutralization of type I IFN-induced STAT1 phosphorylation (CID1286): 0.4 nM
- IC50 (nM), neutralization of type I IFN-induced STAT1 phosphorylation (CID1283): 0.4 nM
- IC50 (nM), neutralization of type I IFN-induced STAT1 phosphorylation (CID1280): 47.7 nM
- IC50 (nM), neutralization of type I IFN-induced STAT1 phosphorylation [1]: 0.3 nM
